Source: patent US9315837B2, “Desaturases of a green microalga and uses thereof” (Ben Gurion University of the Negev Research and Development …, priority 2010, dated 2016)
“And” between values parts separate entries of the source, which are not always exact repeats. Equal entries are not always repeated. Marks after values point to notes of the source that are not given here.

Assays:
[1] = test system: supplied fatty acids in S. cerevisiae strain W303; assay: Functional expression of PiDes12, PiDes6 and PiDes5 in S. cerevisiae fed with fatty acid substrates, GC of FAMEs; format: cell-based, Saccharomyces cerevisiae; conditions: for substrate conversion (ARA emergence after addition of DGLA): PiDes5 transformant, total fatty acids
Source text: (§1) The open reading frames (ORFs) encoding for the […], Δ6, and Δ5 desaturases were amplified using PfuUltra II fusion HS DNA polymerase (Stratagene, La Jolla, Calif., USA) with the respective primer pairs (Table 1). The forward primers contained a restriction site (underlined) and a yeast translation consensus (double underlined) followed by ATG. The reverse primers contained a restriction site (underlined) and a stop codon (double underlined). Following restriction and ligation to the pYES2 vector (Invitrogen, Carlsbad, Calif., USA), the constructs were used to transform S. cerevisiae strain W303 by the PEG/lithium acetate method [R. D. Gietz, R. A. Woods, Yeast Transformation by the LiAc/SS Carrier DNA/PEG Method, in: W. Xiao (Ed.), Yeast Protocols, Second Edition, vol. 313, Methods in Molecular Biology, Humana Press Inc, Totowa, N. J., 2006, pp. 107-120]. The yeast cells harboring the empty pYES2 vector were used as control. Transformants were selected by uracil prototrophy on yeast synthetic medium (YSM) lacking uracil (Invitrogen, Carlsbad, Calif., USA). For functional expression, a minimal selection medium containing 2% (w/v) raffinose was inoculated with the pYPiDesΔ12, pYPiDesΔ6 or pYPiDesΔ5 transformants and grown at 27° C. for 24 h in a water bath shaker. Five ml of sterile YSM, containing 1% (w/v) Tergitol-40 and 250 µM of the appropriate fatty acid substrate was inoculated with raffinose-grown cultures to obtain an OD of 0.2 at 600 nm. Expression was induced by adding galactose to a final concentration of 2% (w/v) and cultures were further grown at 27° C. for 48 h. Cells were harvested by centrifugation, washed twice with 0.1% NaHCO^3, freeze-dried and used for fatty acid analysis.
(§2) Fatty acid methyl esters (FAMES) were obtained by transmethylation of the freeze-dried P. incisa or yeast biomass, with dry methanol containing 2% H2SO4 (v/v) and heating at 80° C. for 1.5 h while stirring under an argon atmosphere. Gas chromatographic analysis of FAMES was performed on a Thermo Ultra Gas chromatograph (Thermo Scientific, Italy) equipped with PTV injector, FID detector and a fused silica capillary column (30 m×0.32 mm; ZB WAXplus, Phenomenex). FAMES were identified by co-chromatography with authentic standards (Sigma Chemical Co., St. Louis, Mo.; Larodan Fine Chemicals, Malmo, Sweden) and FAME of fish oil (Larodan Fine Chemicals). Each sample was analyzed in duplicates of three independent experiments. The structures of fatty acids were confirmed by GC-MS of their pyrrolidine derivatives [W. W. Christie, The analysis of fatty acids in: W. W. Christie (Ed.), Lipid analysis Isolation, separation, identification and structural analysis of lipids, vol. 15, Third edition, The Oily Press, Bridgewater, England, 2003, pp. 205-225] on HP 5890 equipped with a mass selective detector (HP 5971A) utilizing a HP-5 capillary column and a linear temperature gradient from 120 to 300° C.
The functional activities of the proteins encoded by PiDes12, PiDes6 and PiDes5 were examined by heterologous expression in S. cerevisiae. To this aim, the pYES2 constructs pYPiDes12, pYPiDes6 and pYPiDes5 containing the ORFs for PiDes12, PiDes6, and PiDes5, respectively, were transformed into S. cerevisiae. […] An attempt to improve the expression of the recombinant protein and to increase the activity by the modification of yeast translation consensus was not successful.
PiDes6 and PiDes5 expressions were induced in the presence of the main ω6 substrates for Δ6 or Δ5 fatty acid desaturases, 18:2ω6 and 20:3ω6, respectively. New peaks corresponding to 18:3ω6 and 20:4ω6, respectively, were detected, confirming the predicted function of PiDes6 and PiDes5. […] PiDes6 was not active on […] either, whereas PiDes5 desaturated it to the non-methylene-interrupted 20:4^Δ5,11,14,17. PiDes5 converted 20:4ω3 into the respective Δ5 product, 20:5ω3 (EPA) as well as the added 18:1 into the non-methylene-interrupted 18:2^Δ5,9 (FIG. 3). […]

[2] = test system: 20:3ω6 in lipid classes of S. cerevisiae; assay: Fatty acid analysis of individual lipid classes of S. cerevisiae expressing the PiDes5 ORF, fed with 20:3ω6; format: cell-based, Saccharomyces cerevisiae; conditions: for % conversion: 24 h after feeding 20:3ω6
Source text: as §1, §2
The biomass of S. cerevisiae was heated with isopropanol at 80° C. for 10 min and lipids were extracted by the method of Bligh-Dyer (1959) [E. G. Bligh, W. J. Dyer, A rapid method of total lipid extraction and purification, Can. J. Biochem. Physiol. 37 (1959) 911-917]. Total lipid extract was separated into neutral and polar lipids by silica Bond-Elute cartridges (Varian, Calif.) using 1% of ethanol in chloroform (v/v) and methanol to elute neutral and polar lipids, respectively [Z. Cohen, S. Didi, Y. M. Heimer, Overproduction of γ-linolenic and eicosapentaenoic acids by algae, Plant Physiol. 98 (1992) 569-572]. […]

[3] = substrate 18:1^Δ9, PiDesΔ5 product 18:2^Δ5,9, product/(substrate + product)
[4] = substrate 18:3^Δ9,12,15, PiDesΔ6 product 18:4^Δ6,9,12,15, PiDesΔ5 product 18:4^Δ5,9,12,15 (tentative identification)
[5] = substrate 20:3^Δ11,14,17, PiDesΔ5 product 20:4^Δ5,11,14,17

B1: PiDes5: P. incisa Δ5 desaturase, predicted protein of 482 amino acids, SEQ ID NO: 3 (protein, listed as Parietochloris incisa)
chain: MMAVTEGAGGVTAEVGLHKRSSQPRPAAPRSKLFTLDEVAKHDSPTDCWVVIRRRVYDVTAWVPQHPGGNLIFVKAGRDCTQLFDSYHPLSARAVLDKFYIGEVDVRPGDEQFLVAFEEDTEEGQFYTVLKKRVEKYFRENKLNPRATGAMYAKSLTILAGLALSFYGTFFAFSSAPASLLSAVLLGICMAEVGVSIMHDANHGAFARNTWASHALGATLDIVGASSFMWRQQHVVGHHAYTNVDGQDPDLRVKDPDVRRVTKFQPQQSYQAYQHIYLAFLYGLLAIKSVLLDDFMALSSGAIGSVKVAKLTPGEKLVFWGGKALWLGYFVLLPVVKSRHSWPLLAACWLLSEFVTGWMLAFMFQVAHVTSDVSYLEADKTGKVPRGWAAAQAATTADFAHGSWFWTQISGGLNYQVVHHLFPGICHLHYPAIAPIVLDTCKEFNVPYHVYPTFVRALAAHFKHLKDMGAPTAIPSLATVG
- substrate conversion (ARA emergence after addition of DGLA) ([1]; after 3 h): 10.9% and 10.6%
- substrate conversion (ARA emergence after addition of DGLA) ([1]; after 24 h): 15.1%
- Desaturase product and conversion (%) of supplied fatty acid [1, 3]: 18:2^Δ5,9 (4.2) %
- Desaturase product and conversion (%) of supplied fatty acid [1, 4]: 18:4^Δ5,9,12,15** (1.4) %
- Desaturase product and conversion (%) of supplied fatty acid ([1]; substrate 20:3^Δ8,11,14, PiDesΔ5 product 20:4^Δ5,8,11,14): 20:4^Δ5,8,11,14 (16.4) %
- Desaturase product and conversion (%) of supplied fatty acid [1, 5]: 20:4^Δ5,11,14,17 (10.0) %
- Desaturase product and conversion (%) of supplied fatty acid ([1]; substrate 20:4^Δ8,11,14,17, PiDesΔ5 product 20:5^Δ5,8,11,14,17): 20:5^Δ5,8,11,14,17 (17.1) %
- 20:4ω6, fatty acid composition ([2]; lipid class DAG): 2.0 % of total fatty acids
- % conversion ([2]; lipid class DAG): 24.0%
- 20:4ω6, fatty acid composition ([2]; lipid class FFA): 3.6 % of total fatty acids
- % conversion ([2]; lipid class FFA): 17.2%
- 20:4ω6, fatty acid composition ([2]; lipid class PC): 3.6 % of total fatty acids
- % conversion ([2]; lipid class PC): 24.2%
- 20:4ω6, fatty acid composition ([2]; lipid class PE): 1.6 % of total fatty acids
- % conversion ([2]; lipid class PE): 24.6%
- 20:4ω6, fatty acid composition ([2]; lipid class PI + PS): 1.1 % of total fatty acids
- % conversion ([2]; lipid class PI + PS): 18.1%
- 20:4ω6, fatty acid composition ([2]; lipid class SE): 1.1 % of total fatty acids
- % conversion ([2]; lipid class SE): 8.4%
- 20:4ω6, fatty acid composition ([2]; lipid class TAG): 2.0 % of total fatty acids
- % conversion ([2]; lipid class TAG): 9.3%
- 20:4ω6 share by lipid class (% of total lipid) ([2]; share found in lipid class DAG): 1.4 % TL
- 20:4ω6 share by lipid class (% of total lipid) ([2]; share found in lipid class FFA): 9.1 % TL
- 20:4ω6 share by lipid class (% of total lipid) ([2]; share found in lipid class PC): 25.7 % TL
- 20:4ω6 share by lipid class (% of total lipid) ([2]; share found in lipid class PE): 2.3 % TL
- 20:4ω6 share by lipid class (% of total lipid) ([2]; share found in lipid class PI + PS): 4.4 % TL
- 20:4ω6 share by lipid class (% of total lipid) ([2]; share found in lipid class SE): 1.8 % TL
- 20:4ω6 share by lipid class (% of total lipid) ([2]; share found in lipid class TAG): 55.2 % TL

B2: PiDes6: P. incisa Δ6 desaturase, predicted protein of 481 amino acids, SEQ ID NO: 2 (protein, listed as Parietochloris incisa)
chain: MCQGQAVQGLRRRSSFLKLTGDAIKGAVAAISDFNKLPAATPVFARRSLSDSALQQRDGPRSKQQVTLEELAQHNTPEDCWLVIKNKVYDVSGWGPQHPGGHVIYTYAGKDATDVFACFHAQTTWSQLRPFCIGDIVEEEPMPALLKDFRELRTRLQQQGLFRSNKLYYLYKVASTLSLLAAALAVLITQRDSWLGLVGGAFLLGLFWQQSGWLAHDFLHHQVFTDRQWNNVMGYFLGNVCQGFSTDWWKSKHNVHHAVPNELDSDSKAARDPDIDTLPLLAWSSEMLDSMSNSGARLFVRMQHYFFFPILLFARMSWCQQSVAHASDLSRTSKAGVYELAYLALHYAWFLGAAFSVLPPLKAVVFALLSQMFSGFLLSIVFVQSHNGMEVYSDTKDFVTAQIVSTRDILSNVWNDWFTGGLNYQIEHHLFPTLPRHNLGKVQKSIMELCHKHGLVYENCGMATGTYRVLQRLANVAAEA
- Desaturase product and conversion (%) of supplied fatty acid [1, 3]: neither active
- Desaturase product and conversion (%) of supplied fatty acid ([1]; substrate 18:2^Δ9,12, PiDesΔ6 product printed 18:2^Δ6,9,12, product/(substrate + product)): 18:2^Δ6,9,12 (5.1) %
- Desaturase product and conversion (%) of supplied fatty acid [1, 4]: 18:4^Δ6,9,12,15 (4.5) %
- Desaturase product and conversion (%) of supplied fatty acid [1, 5]: not active

B3: PiDes12: P. incisa Δ12 desaturase, predicted protein of 380 amino acids, SEQ ID NO: 1 (protein, listed as Parietochloris incisa)
chain: MGKGGCYQAGPPSAKKWESRVPTAKPEFTIGTLRKAIPVHCFERSIPRSFAYLAADLAAIAVMYYLSTFIDHPAVPRVLAWGLLWPAYWYFQGAVATGVWVIAHECGHQAFSPYQWLNDAVGLVLHSCLLVPYYSWKHSHRRHHSNTGSTTKDEVFVPREAAMVESDFSLMQTAPARFLVIFVSLTAGWPAYLFANASGRKYGKWANHFDPYSPIFTKRERSEIVVSDVALTVVIAGLYSLGKAFGWAWLVKEYVIPYLIVNMWLVMITLLQHTHPELPHYADKEWDWLRGALATCDRSYGGMPDHLHHHIADTHVAHHLFSTMPHYHAQEATEAIKPILGKYYKQDKRNVWAALWEDFSLCRYVAPDTAGSGILWFRA
- desaturation activity ([1]; heterologous expression in yeast): very low desaturation activity
- peak corresponding to 18:2 ([1]; yeast transformed with pYPiDes12): 0.3 % of TFA
